This is an account of results in patent EP4019546A1.

Read-outs that look alike come from different tables or passages of the source.

Experiment [1] has as its target human IL-31 (human) (UniProt Q6EBC2). The experiment can be described thus: cell-based or functional assay.
The target of experiment [2] is human IL-31-His (human) (UniProt Q6EBC2). The experiment can be described thus: SPR (Biacore T200), IL-31-His captured via anti-His antibody, scFv as analyte, 1:1 model. (SPR reads the build-up and loss of mass on a sensor chip optically.)
Sequence of human IL-31-His (human) (Q6EBC2 24-164 limits assumed): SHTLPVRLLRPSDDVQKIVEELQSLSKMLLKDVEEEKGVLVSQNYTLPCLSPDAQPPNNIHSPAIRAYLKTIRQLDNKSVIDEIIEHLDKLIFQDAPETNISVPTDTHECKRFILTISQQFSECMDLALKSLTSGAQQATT
In experiment [3] the target is human IL-31 (human) (UniProt Q6EBC2). In words: competitive ELISA, IL-31RA coated, biotinylated IL-31 preincubated with scFv; competitor IL-31RA.
Sequence of human IL-31 (human) (Q6EBC2 24-164 limits assumed): as above
Experiment [4] deals with human IL-31-His (human) (UniProt Q6EBC2). The experiment can be described thus: SPR (Biacore T200), IL-31-His captured via anti-His antibody, scFv as analyte, 1:1 model. The source holds these as a separate data set.
The target of experiment [5] is human IL-31 (human) (UniProt Q6EBC2). The experiment can be described thus: cell-based or functional assay. This is another data set of the same source.

B1: PRO1643 (scFv, from another filing)
scFv: AFQLTQSPSSLSASVGDRVTITCQASQSIDSWLAWYQQKPGKPPKLLIYQASKLASGVPSRFSGSGSGTDYTLTISSLQPEDFATYYCQTYYGGGHIGWGFGTGTKVTVLGGGGGSGGGGSGGGGSGGGGSQSQLVESGGGLVQPGGSLRLSCAASGFSFSANYWICWVRQAPGKGLEWIVCIYIGSRADTYYAPWAKGRFTISKDNSKNTVYLQMNSLRAEDTAVYFCARFSSGIYDLDRFFLWGQGTLVTVSS
Broadly, the Kd is the free concentration of one partner at which half of the binding sites on the other are occupied at equilibrium, for simple one-to-one binding. The term koff denotes the first-order rate constant of dissociation. Read a low koff as slow dissociation. The kon is the rate constant with which the complex forms. A higher kon goes with fast association. Broadly, the IC50 is the concentration needed to halve the response being measured. Read a low IC50 as greater potency. In experiment [1], B1 came in with an IC50, neutralization of hIL-31-induced signaling in IL-31RA/OSMR dimerization assay of 8.08 ng/mL and a rel. IC50 (IC50, BMS-981164/IC50, test sample), IL-31RA/OSMR dimerization assay of 0.85. In experiment [2], the Kd was 0.505 nM, the koff came to 0.000447 s⁻¹ and the association rate constant (kon) worked out at 884000 M⁻¹ s⁻¹. In experiment [3], this molecule had an IC50 of 4.58 ng/mL and a rel. IC50 (IC50, BMS-981164/IC50, test sample) of 2.04. Also, in experiment [4], the Kd stood at 1.13 nM, the dissociation rate constant (koff) came out at 0.000653 s⁻¹ and the association rate constant (kon) is 579000 M⁻¹ s⁻¹. In experiment [5], this molecule showed an IC50, neutralization of hIL-31-induced signaling in IL-31RA/OSMR dimerization assay of 11.1 ng/mL and a rel. IC50 (IC50, BMS-981164/IC50, test sample), IL-31RA/OSMR dimerization assay of 1.16.
